Experimental data reported in US20100124555A1, “Compositions and Methods for Treating Pancreatic Tumors” (UNIVERSITE DE LA MEDITERRANEE, priority 2007, published 2010).

Assays:
living cells in culture = assay: Pulse-chase confocal microscopy internalization; format: cell-based; conditions: pulse 30 min at 4° C.; chase 2 h at 37° C.
Description: A pulse-chase experiment using confocal microscopy was used to assess the interaction of the IgM 16D10 antibody with living cells in culture. (Pulse: 30 min at 4° C.; Chase: 0 or 2 h at 37° C. in culture medium.) It was observed that virtually all of the mAb was internalized within 2 h. A fraction of the mAbs co-localized with LAMP1.

[1] = tested on: p53, cyclin D1, GSK-3β in SOJ-6 cells; assay: Western blot of cell cycle regulatory proteins; format: cell-based, human
Description: SOJ-6 cells were grown in 6-well culture plates in RPMI 1640 medium with 10% FCS. At subconfluency, the medium was removed and replaced for 24 hours by fresh RPMI medium with 10% inactivated FCS. SOJ-6 cells were then incubated with mAb16D10 or Cisplatin for 24 hours. At the end of incubation, cells were washed three times with ice-cold PBS (without […] and Mg^++) harvested and pelleted by centrifugation. Pellets were washed twice and lysed at 4° C. in 0.5 ml of lysis buffer (10 mM Tris-HCl pH 7.4, 150 mM NaCl, 1% Triton X-100, 1 mM benzamidine and phosphatase inhibitors). After lysis, homogenates were clarified by centrifugation at 10,000 g for 10 min at 4° C. An aliquot was saved for protein determination using the bicinchoninic acid assay (Pierce, Rockford, Ill.). Proteins (50 μg/lane) in reducing SDS buffer were separated onto 10, 12, or 15% polyacrylamide with 0.1% SDS (according to the molecular weight range of proteins to be separated). After electrophoretic migration, proteins were silver stained. Alternatively, proteins were transferred onto nitrocellulose membranes using a Mini Transblot electrophoretic cell (BioRad, Hercule, Oreg.), and transferred proteins were immunodetected by using appropriate primary and secondary antibodies. After washes, membranes were developed with a chemoluminescent substrate according to the manufacturer's instructions (Roche Diagnostics, Switzerland). In each experiment, a control was included by omitting primary antibodies or by using a non-immune serum.
The expression of different cell cycle regulatory proteins, specifically p53 and cyclin D1, was next analyzed. […] Since cyclin D1 expression may be directly regulated by GSK-3β (Diehl et al., 1998 Genes Dev. 12(22):3499-511), we next focused on the expression level of this kinase in SOJ-6 cells once challenged with mAb16D10.

B1: 16D10: IgM monoclonal antibody recognizing FAPP/BSDL; producing cells deposited with the CNCM under the number I-3188 (antibody, listed as Mus musculus, V domains shown)
VH: QVQLQQSDAELVKPGASVKISCKASGYTFTDHAIHWVKQKPEQGLEWIGYISPGNDVIKFNEKFKGKATLTADKSSSTAYMQLNSLTSEDSAVYFCKRSEGGVFDYWGQGTTLTVS
VL: NIMMTQSPSSLAVSAGEKVTMSCKSSQSVLYSSNQKNFLAWYQQKPGQSPKLLIYWASTRESGVPDRFTGSGSGTDFTLTISSVQAEDLAVYYCHQYLSSYTFGGGTKLEIK
B1 was tested, and the “fraction of mAb internalized” value (living cells in culture) was “virtually all”, the “expression of cyclin D1” value [1] was “decreased that of cyclin D1” and the “expression of p53” value [1] was “increased the expression of p53”. The “expression of total GSK-3β” value [1] was “constant” and the “phospho-GSK-3β (inactive form)” value [1] was “a decrease in the phospho-GSK-3β”.
